# Assay results as given in publication PMC2860377.
# Tested on: CSCC[C@H](N)C(=O)Nc1ccc2c(C)cc(=O)oc2c1
# Experiment: purified protein
# Conditions: Fe(II) form, 10 μM FeCl2
substance,measurement,value
MtMetAP1a (Mycobacterium tuberculosis H37Rv),Km,161 µM
